Data from publication PMC2789238.

Legend:
[1] = molecular target: ERK1, not dual-phosphorylated (inactive ERK dimer in U0126-inhibited embryos) (L. pictus (endogenous in eggs and embryos)); assay: native gel or EMSA; whole-cell extracts of eggs/embryos at times after fertilization (control, or U0126 15 min before fertilisation); non-denaturing gel to maintain ERK as a dimer; Western blot with anti-dual-phosphorylated ERK or anti-ERK antibodies
[2] = molecular target: dual-phosphorylated ERK1 (fully activated ERK bis-phosphodimer) (L. pictus (endogenous in eggs and embryos)); assay: as above
[3] = molecular target: cdk2 (cyclin-associated kinase activity in sea urchin cell extracts) (L. pictus (endogenous in eggs and embryos))

“ERK1, not dual-phosphorylated (inactive ERK dimer in U0126-inhibited embryos) (enzyme)” gave a stoichiometry N [1] of 2.

For “dual-phosphorylated ERK1 (fully activated ERK bis-phosphodimer) (enzyme)”, the stoichiometry N [2] was 2.

“p27^kip1 recombinant protein (from UniProt P46414 1-197) (natural protein)” gave an inhibition of Rb C-terminus phosphorylation in the 4 min whole-cell extract with a mixture of Rb and MBP as substrates, with and without p27^kip1 [3] of 97%.
